B1: unnamed (parent)
chain 1: MAVSESQLKKMVSKYKYRDLTVRETVNVITLYKDLKPVLDSYVFNDGSSRELMNLTGTIPVPYRGNTYNIPICLWLLDTYPYNPPICFVKPTSSMTIKTGKHVDANGKIYLPYLHEWKHPQSDLLGLIQVMIVVFGDEPPVFSRPISASYPPYQATGPPNTSYMPGMPGGISPYPSGYPPNPSGYPGCPYPPGGPYPATTSSQYPSQPPVTTVGPSRDGTISEDTIRASLISAVSDKLRWRMKEEMDRAQAELNALKRTEEDLKKGHQKLEEMVTRLDQEVAEVDKNIELLKKKDEELSSALEKMENQSENNDIDEVIIPTAPLYKQILNLYAEENAIEDTIFYLGEALRRGVIDLDVFLKHVRLLSRKQFQLRALMQKARKTAGLSDLY
chain 2: LQSRPEPTAPPEESFRSGVETTTPPQKQEPIDKELYPLTSLRSLFGNDPSSQ

Variants of: B1
Assay: yeast 2-hybrid assay
Details: with partner chain of the complex shown; parent: 1; read off a plot

Variant	ratio to parent
chain 1 Q7A L8A	1.1
chain 1 Y42A	0.95
chain 1 S41A	1.3
chain 1 K16A	2.4
chain 1 M11A V12A S13A K14A	1.9
chain 1 K9A K10A	9.3
chain 1 Y110A	0.35
chain 1 Y82A	0.8
chain 1 K10A	2.9
